Data taken from patent US20210395381A1 (OSSIANIX, published 2021).

Columns and labels:
recombinant mouse TfR-1 = target: T1, recombinant mouse TfR-1 (mouse, UniProt Q62351 89-763); test: phage ELISA
T1 construct: Bought recombinant protein; also called mTfR1
Protocol: (§1) After the third round of selection, instead of pooling bacterial colonies, individual phagemid clones were grown in 1 ml of 2TY medium containing glucose and ampicillin in 96-well blocks and used to rescue the phages. After an overnight culturing, bacteria were spun down and an aliquot of the phage supernatant was sent for Sanger sequencing (Genewiz); VNAR CDR3 sequences were identified using BioEdit (a sequence alignment editor). Another aliquot was blocked with 2.5% milk for phage ELISAs. High-binding ELISA plates (Greiner) were coated with 1 μg/ml of recombinant human or mouse TfR-1. The plates were then blocked with 2.5% milk in PBST. Blocked phages were added to the blocked plates and the VNAR-phage clones binding to the antigens were detected with HRP-labelled anti-M13 coat protein antibodies (Sino Biological), and chromogenic TMB substrate (KLM)

recombinant human TfR-1 = target: T2, recombinant human TfR-1 (human, UniProt P02786 89-760); test: phage ELISA
T2 construct: extracellular domain; also called hTfR1; human transferrin receptor-1
Protocol: as §1

T2 sequence (P02786 89-760): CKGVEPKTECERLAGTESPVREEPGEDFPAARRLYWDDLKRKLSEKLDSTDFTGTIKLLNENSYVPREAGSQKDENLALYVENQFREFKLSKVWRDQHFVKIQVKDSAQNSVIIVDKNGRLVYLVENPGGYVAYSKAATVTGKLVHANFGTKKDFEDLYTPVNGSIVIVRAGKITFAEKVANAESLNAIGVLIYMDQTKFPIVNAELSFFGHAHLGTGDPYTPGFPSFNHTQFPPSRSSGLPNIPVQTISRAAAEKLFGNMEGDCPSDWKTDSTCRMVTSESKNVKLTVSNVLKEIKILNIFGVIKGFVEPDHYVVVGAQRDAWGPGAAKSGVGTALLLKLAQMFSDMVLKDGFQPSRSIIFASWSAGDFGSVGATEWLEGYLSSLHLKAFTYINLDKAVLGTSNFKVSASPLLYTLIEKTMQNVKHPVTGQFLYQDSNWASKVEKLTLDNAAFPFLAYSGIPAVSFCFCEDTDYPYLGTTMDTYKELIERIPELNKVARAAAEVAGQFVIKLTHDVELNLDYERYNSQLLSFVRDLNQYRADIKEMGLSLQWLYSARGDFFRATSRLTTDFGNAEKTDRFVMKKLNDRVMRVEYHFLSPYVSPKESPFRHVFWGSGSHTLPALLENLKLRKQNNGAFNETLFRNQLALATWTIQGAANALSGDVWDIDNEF
T1 sequence (Q62351 89-763 limits assumed): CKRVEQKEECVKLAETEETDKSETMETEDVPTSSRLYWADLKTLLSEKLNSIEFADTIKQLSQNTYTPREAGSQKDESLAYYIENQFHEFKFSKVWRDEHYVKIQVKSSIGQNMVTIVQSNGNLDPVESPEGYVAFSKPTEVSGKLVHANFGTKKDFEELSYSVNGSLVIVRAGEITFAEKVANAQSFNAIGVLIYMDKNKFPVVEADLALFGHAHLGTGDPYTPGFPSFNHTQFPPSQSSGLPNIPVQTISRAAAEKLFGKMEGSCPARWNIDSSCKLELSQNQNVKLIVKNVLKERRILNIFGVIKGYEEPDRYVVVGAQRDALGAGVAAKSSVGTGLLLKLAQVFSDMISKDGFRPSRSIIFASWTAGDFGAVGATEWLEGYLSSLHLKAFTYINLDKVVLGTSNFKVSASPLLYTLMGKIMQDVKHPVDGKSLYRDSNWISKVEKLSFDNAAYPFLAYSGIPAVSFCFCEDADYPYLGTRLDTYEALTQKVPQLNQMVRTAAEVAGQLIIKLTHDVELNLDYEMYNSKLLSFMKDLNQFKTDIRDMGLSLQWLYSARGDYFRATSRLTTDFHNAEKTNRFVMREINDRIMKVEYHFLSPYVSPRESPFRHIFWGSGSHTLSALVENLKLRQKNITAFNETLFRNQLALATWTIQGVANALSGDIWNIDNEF

B1: Clone 21 (VNAR)
VNAR: ARVDQTPRVTKETGESLTINCVLRDNNCALSTTYWYRKKSGSTNEENISKGGRYVETVNSGSKSFSLRINDLTVEDSGTYRCNVYMTACSNDMDVYGGGTVVTVNA
notes: VNAR on phage
- binding result (recombinant mouse TfR-1): binds
- binding result (recombinant human TfR-1): binds

B2: Clone 40 (VNAR)
VNAR: ARVDQTPQTITKETGESLTINCVLRDSNCALSSTYWYRKKSGSTNEESISKGGRYVETVNSGSKSFSLRINDLTVEDSGTYRCKVVQFEKDCQGLLRQTNDVYGGGTVVTVNA
notes: VNAR on phage
- binding result (recombinant mouse TfR-1): no binding

B3: Clone 3 (VNAR)
VNAR: ARVDQTPQTITKETGESLTINCVLRDSNCALPSTYWYRKKSGSTNEESISKGGRYVETVNSGSKSFSLRINDLTVKDSGTYRCNVVQEPYSCKGRDDVYGGGTAVTVNA
notes: VNAR on phage
- binding result (recombinant mouse TfR-1): binds
- binding result (recombinant human TfR-1): binds

B4: Clone 17 (VNAR)
VNAR: ARVDQTPQTITKETGESLTINCVLRDSNCALSNLYWYRKKSGSTNEESISLGGRYVETVNSGSKSFSLRINDITVEDSGRYRCNVYNFFTYQCRWFQSDVYGDGTAVTVNA
notes: VNAR on phage
- binding result (recombinant mouse TfR-1): binds
- binding result (recombinant human TfR-1): binds

B5: Clone 14 (VNAR)
VNAR: ARVDQTPQTITKETGESLTINCVLRDSNCALPSTYWYRKKSGSTNEESISKGGRYVETVNSGSKSFSLRINDLTVKDSGTYRCNVMVFQVSGDYSRLEDVYGGGTVVTVNA
notes: VNAR on phage
- binding result (recombinant mouse TfR-1): binds
- binding result (recombinant human TfR-1): binds

B6: Clone 23 (VNAR)
VNAR: ARVDQTPQTVTKETGESLTINCVLRDSNCDLSRTYWYRKKSGSTNEESISKGGRYVETVNSGSKSFSLRINDLTVEDSGTYRCNVGGDLCGDQRDVYGGGTAVTVNA
notes: VNAR on phage
- binding result (recombinant mouse TfR-1): binds
- binding result (recombinant human TfR-1): binds

B7: Clone 60 (VNAR)
VNAR: ARVDQTPQTITKETGESLTINCVLRDSNCDLSRTYWYRKKSGSTNEESISKGGRYVETVNSGSKSFSLRINDLTVEDSGTYRCNVYNPGNGWAMYDVYGGGTAVTVNA
notes: VNAR on phage
- binding result (recombinant mouse TfR-1): no binding

B8: Clone 29 (VNAR)
VNAR: ARVDQTPQTITKETGESLTINCVLRDSNCALSSTLWYRTKSGSRNEESISKGGRYVETVNSGSKSFSLRINDLTVEDSGTYRCNVQQGCESYNWMVDVYGGGTAVTVNA
notes: VNAR on phage
- binding result (recombinant mouse TfR-1): binds
- binding result (recombinant human TfR-1): binds

B9: Clone 16 (VNAR)
VNAR: ARVDQTPQTITKETGESLTINCVLRDSNCALSSTYWYRKKSGSTNEENISKGGRYVETVNSGSKSFSLRINDLTVEDSGTYRCKVQSAQGMGLNGCKPGRVDVYGDGTAVTVNA
notes: VNAR on phage
- binding result (recombinant mouse TfR-1): binds
- binding result (recombinant human TfR-1): binds

B10: Clone 34 (VNAR)
VNAR: PRVDQTPQTITKETGESLTINCVLRDSNCALSSTYWYRKKSGSTNEESISKGGRYVETVNSGSKSFSLRINDLTVEDSGTYRCNVSSNAHCDGRRRDVYGGGTAVTVNA
notes: VNAR on phage
- binding result (recombinant mouse TfR-1): no binding

B11: Clone 22 (VNAR)
VNAR: ARVDQTPQTITKETGESLTINCVLRDSNCALSNLYWYRKKSGSTNEESISLGGRYVETVNSGSKSFSLRINDLTVEDSGTYRCNVQQQSSGTFYDVYGGGTAVTVNA
notes: VNAR on phage
- binding result (recombinant mouse TfR-1): binds
- binding result (recombinant human TfR-1): binds

B12: Clone 26 (VNAR)
VNAR: ARVDQTPQTITKETGESLTINCVLRDSNCALSSTLWYRTKSGSRNEESISKGGRYVETVNSGSKSFSLKINDLTVEDSGTYRCNVCMGVTCNHVPDVYGGGTVVTVNA
notes: VNAR on phage
- binding result (recombinant mouse TfR-1): binds
- binding result (recombinant human TfR-1): binds

B13: Clone 27 (VNAR)
VNAR: ARVDQTPRSVTKETGESLTINCVLRDASYALGSTCWYRKKSGSTNEESISKGGRYVETVNSGSKSFSLRINDLTVEDSGTYRCNVSRIGQYLCQARSDVYGDGTAVTVNA
notes: VNAR on phage
- binding result (recombinant mouse TfR-1): binds
- binding result (recombinant human TfR-1): binds

B14: Clone 20 (VNAR)
VNAR: ARVDQTPRSVTKETGESLTINCVLRDSNCALPSTYWYRKKSGSTNEESISKGGRYVETVNSGSKSFSLRINDLTVKDSGTYRCNVKWDCRYQCICVSADVYGDGTAVTVNA
notes: VNAR on phage
- binding result (recombinant mouse TfR-1): binds
- binding result (recombinant human TfR-1): binds

B15: Clone 36 (VNAR)
VNAR: ARVDQTPQTITKETGESLTINCVLRDSNCALPSTYWYRKKSGSTNEESISKGGRYVETVNSGSKSFSLRINDLVVEDSGTYRCNVHCYGGDLHQLDVYGGGTAVTVNA
notes: VNAR on phage
- binding result (recombinant mouse TfR-1): no binding

B16: Clone 2 (VNAR)
VNAR: ARVDQTPQTITKETGESLTINCVLRDSNCELSSTYWYRKKSDSTNEASISKGGRYVETVNSGSKSFSLKINDLTVEDSGTYRCNVFTSDSYDLGDVYGGGTVVTVNA
notes: VNAR on phage
- binding result (recombinant mouse TfR-1): binds
- binding result (recombinant human TfR-1): binds

B17: Clone 39 (VNAR)
VNAR: ARVDQTPQTITKETGESLTINCVLRDSNCELSSTYWYRKKSGSTNEESISLGGRYVETVNSGSKSFSLRINDLTVEDSGTYRCNVQSAMLMLCLSRFDVYGGGTAVTVNA
notes: VNAR on phage
- binding result (recombinant mouse TfR-1): no binding

B18: Clone 12 (VNAR)
VNAR: ARVDQTPRSVTKETGESLTINCVLRDASYELGSTCWYRKKSGSTNEESISKGGRYVETVNSGSKSFSLRINDLTVEDGGTYRCGAWSRLSSSWGCDVGLQCMGCWDLWAACGDGTAVTVNA
notes: VNAR on phage
- binding result (recombinant mouse TfR-1): binds
- binding result (recombinant human TfR-1): binds

B19: Clone 15 (VNAR)
VNAR: ARVDQTPRSVTKETGESLTINCVLRDASYELGSTCWYRKKSGSTNEESISKGGRYVETVNSGSKSFSLRINDLTVEDGGTYRCGAPRWQMGGQWCDGGTAACRSGMAEVAACGDGTAVTVNA
notes: VNAR on phage
- binding result (recombinant mouse TfR-1): binds
- binding result (recombinant human TfR-1): binds

B20: Clone 11 (VNAR)
VNAR: ARVDQTPQTITKETGESLTINCVLRDSNCALPSTYWYRKKSGSTNEESISKGGRYVETVNSGSKSFSLRINDLTVEDSGTYRCNVQWLWSFSCLPCVEDVYGGGTVVTVNA
notes: VNAR on phage
- binding result (recombinant mouse TfR-1): binds
- binding result (recombinant human TfR-1): binds

B21: Clone 19 (VNAR)
VNAR: ARVDQTPQTITKETGESLTINCVLRDSNCALSSTYWYRKKSGSTNEESISKGGRYVETVNSGSKSFSLRINDLTVEDSGTYRCNVGQAQRLRSNVDDVYGGGTVVTVNA
notes: VNAR on phage
- binding result (recombinant mouse TfR-1): binds
- binding result (recombinant human TfR-1): binds

B22: Clone 10 (VNAR)
VNAR: ARVDQTPQTITKETGESLTINCVLRDSNCALSNLYWYRKKSGSTNEESISLGGRYVETVNSGSKSFSLRINDLTVEDSGTYRCNVVQYPTAKCRQVDVYGGGTAVTVNA
notes: VNAR on phage
- binding result (recombinant mouse TfR-1): binds
- binding result (recombinant human TfR-1): binds

B23: Clone 28 (VNAR)
VNAR: ARVDQTPQTITKETGESLTINCVLRDSICALSSTHWYRKKSGSTNEESISKGGRYVETVNSGSKSFSLRINDLTVEDSGTYRCNVRTAQGTLCGDVSDVYGDGTAVTVNA
notes: VNAR on phage
- binding result (recombinant mouse TfR-1): binds
- binding result (recombinant human TfR-1): binds

B24: Clone 13 (VNAR)
VNAR: ARVDQTPQTITKQTGESLTINCVLRDSNCALSSTYWYRKKSGSTNEESISLGGRYVETVNSGSKSFSLRINDLTVEDSGTYRCNVRRLQAWGSCRGGDVYGGGTVVTVNA
notes: VNAR on phage
- binding result (recombinant mouse TfR-1): binds
- binding result (recombinant human TfR-1): binds

B25: Clone 1 (VNAR)
VNAR: ARVDQTPQTITKETGESLTINCVLRDNNCALSTTYWYRKKSGSTNEESISLGGRYVETVNSGSKSFSLRINDLTVEDSGTYRCNVSDVVSCDDGWNWLDVYGGGTAVTVNA
notes: VNAR on phage
- binding result (recombinant mouse TfR-1): binds
- binding result (recombinant human TfR-1): binds

B26: Clone 18 (VNAR)
VNAR: ARVDQTPQTITKETGESLTINCVLRDSNCALSSTYWYRKKSDSTNEESISKGGRYVETVNSGSKSFSLRINDLTVEDSGTYRCKVCTGMSCPCLGRRQTDVYGGGTAVTVNA
notes: VNAR on phage
- binding result (recombinant mouse TfR-1): binds
- binding result (recombinant human TfR-1): binds

B27: Clone 24 (VNAR)
VNAR: ARVDQTPQTITKETGESLTINCVLRDSNCALPSTYWYRKKSGSTNEESISKGGRYVETVNSGSKSFSLRINDLTVKDSGTYRCKVGPRCMGPNWQSYSCDVYGGGTVVTVNA
notes: VNAR on phage
- binding result (recombinant mouse TfR-1): binds
- binding result (recombinant human TfR-1): binds

B28: Clone 35 (VNAR)
VNAR: ARVDQTPQTITKETGESLTINCVLRDSNCALSSTYWYRKKSDSTNEESISKGGRYVETVNSGSKSFSLRINDLTVKDSGTYRCNVSEDLQAICCWNDVYGDGTAVTVNA
notes: VNAR on phage
- binding result (recombinant mouse TfR-1): no binding

B29: Clone 37 (VNAR)
VNAR: ARVDQTPQTITKETGESLTINCVLRDSNCALSSTYWYRKKSDSTNEESISKGGRYVETVNSGSKSFSLRINDLTVKDSGTYRCNVSEDLQAICCWNDVYGDGTAVTVNA
notes: VNAR on phage
- binding result (recombinant mouse TfR-1): no binding

B30: Clone 25 (VNAR)
VNAR: ARVDQTPRSVTKETGESLTINCVLRDSICALSSTYWYRKKSGSTNEESISKGGRYVETVNSGSKSFSLKINDLTVEDSGTYRCNVFTEMRGRCWAWGVDVYGDGTAVTVNA
notes: VNAR on phage
- binding result (recombinant mouse TfR-1): binds
- binding result (recombinant human TfR-1): binds
